Reference: patent US20190185516A1 (YISSUM RESEARCH DEVELOPMENT COMPANY OF THE HEBREW …, published 2019)
Numbered stars: 1 amine (or outer) side, 2 acyl side, 3 side chain; on linkers, the order of the positions; unused ones are H or OH. Bridge positions count the residues as written; N and C are the ends. Square brackets hold non-standard residues; d marks the D form. Ends that are not written are not given here. CO = O=C([*:1])[*:2]; Nlys = NCCCCNCC(=O)O

B1: MyD88 inhibitor linear peptide RDVLPGT (peptide)
peptide: RDVLPGT
B2: scrambled version of the linear MyD88 inhibitor peptide (PTDLVRG) (peptide)
peptide: PTDLVRG
B3: backbone cyclic peptide 4×4MyDI (Formula IV, m=4, n=4, Z=Trp) (peptide)
peptide: W[Nlys]RDVL[Nlys]GT
modifications: bridge 2-7 via CO; also: backbone cyclization: two amine-terminated 4-methylene arms on Gly2 and Gly7 joined by a urea bond

biological target: MyD88, endogenous, in human cell lines (HeLa, U937, THP-1) (human, UniProt Q99836 1-296); assay: cell-based or functional assay
Sequence (Q99836 whole entry): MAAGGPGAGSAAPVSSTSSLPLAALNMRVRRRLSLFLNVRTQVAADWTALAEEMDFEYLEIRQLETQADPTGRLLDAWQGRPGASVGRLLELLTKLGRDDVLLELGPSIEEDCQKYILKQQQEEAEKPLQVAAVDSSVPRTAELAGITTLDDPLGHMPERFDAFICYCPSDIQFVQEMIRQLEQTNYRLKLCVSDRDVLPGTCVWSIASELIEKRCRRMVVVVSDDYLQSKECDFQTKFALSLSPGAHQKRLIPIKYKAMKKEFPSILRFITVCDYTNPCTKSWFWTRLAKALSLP

In order of falling “Percent p65 nuclear translocation in HeLa cells, IL-1β” value:
1. B2  91%
2. B3  27%
3. B1  20%
